Tests used:
[1] = test system: CBCA, THCA, and CBDA production; CBGA residual substrate; test: In vivo TS activity assay, Example 3 metagenomic CBCAS screen, cultures fed olivetolic acid; assay type: cell-based, S. cerevisiae; conditions: for Mean CBCA / Mean CBDA / Mean THCA: metagenomic CBCAS candidates in S. cerevisiae, secondary screen, quadruplicate; for Mean CBCA / Mean CBDA / Mean THCA / % CBCA / % CBDA / % THCA: fed 1 mM olivetolic acid; for Average CBGA residual substrate: olivetolic acid fed (Table 12); for % CBCA / % CBDA / % THCA: share of terminal cannabinoid product profile
Description: (§1) An assay to detect TS activity was conducted as follows: each thawed glycerol stock of candidate CBCAS transformants was stamped into a well of YEP+4% dextrose media. Samples were incubated at 30° C. in a shaking incubator for 2 days. A portion of each of the resulting cultures was stamped into a well of YEP+4% galactose+1 mM olivetolic acid (FIG. 1 Structure 6a). Samples were incubated at 20° C. and shaken in a shaking incubator for 4 days. Every 24 hours during those 4 days, 2% galactose and 1 mM olivetolic acid were spiked into the cultures. Sodium citrate buffer adjusted to pH 5.5 was added to each well at a final concentration of 100 mM. Samples were incubated at 20° C. and shaken in a shaking incubator for 2 days. A portion of each of the resulting production cultures was stamped into a well of phosphate buffered saline (PBS). Optical measurements were taken on a plate reader, with absorbance measured at 600 nm and fluorescence at 528 nm with 485 nm excitation. Samples were incubated at 30° C. in a shaking incubator for 2 days. 100% methanol was stamped into the production cultures in half-height deepwell plates. Plates were heat sealed and frozen. Samples were then thawed for 30 min and spun down at 4° C. A portion of the supernatant was stamped into half-area 96 well plates. CBCA, THCA, and CBDA production in the samples was quantified via liquid chromatography-mass spectrometry (LC-MS).
(§2) To explore whether other putative CBCASs may exist in the broader metagenome, a library of 1072 candidate CBCAS genes was designed using the A. niger CBCAS enzyme identified in Example 1 as a reference. Protein sequences were recoded in silico for expression in S. cerevisiae and synthesized in the integrative yeast expression vector shown in FIG. 5. Each candidate enzyme expression construct was transformed into an S. cerevisiae CEN.PK strain that also expressed a prenyltransferase enzyme capable of catalyzing reaction R^4 in FIG. 2. Strain t616313, expressing GFP, was included in the library screen as a negative control for enzyme activity. Strain t807925, expressing the A. niger enzyme identified in Example 1, was included in the library screen as a positive control for enzyme activity. All candidate enzymes in the library, as well as the enzyme expressed by positive control strain t807925, included an N-terminal MFalpha2 signal peptide (SEQ ID NO: 16) (with a methionine residue added at the N-terminus of the MFalpha2 signal peptide) and a C-terminal HDEL signal peptide (SEQ ID NO: 17).
The library of candidate CBCAS enzymes was assayed for activity in a primary high-throughput screen using the assay described in Example 1. Production of CBCA, THCA, and/or CBDA in the samples was quantified via LC-MS.
(§3) Based on results of the primary screen, 70 strains were carried forward to a secondary screen to confirm activity observed in the primary screen. The experimental protocol for the secondary screen was identical to the primary screen, except that additional technical replicates were included per strain, and replicate production cultures for each strain were separately fed 1 mM olivetolic acid or 1 mM divaric acid. All strains were screened in quadruplicate (FIGS. 10A-10C, Tables 10 and 11).

[2] = test system: CBCVA, THCVA, and CBDVA production; CBGVA residual substrate; test: In vivo TS activity assay, Example 3 metagenomic CBCAS screen, cultures fed divaric acid; assay type: cell-based, S. cerevisiae; conditions: for Average CBGVA residual substrate: divaric acid fed (Table 12); for Mean CBCVA / Mean CBDVA / Mean THCVA: secondary screen, S. cerevisiae, quadruplicate, LC-MS; for Mean CBCVA / Mean CBDVA / Mean THCVA / % CBCVA / % CBDVA / % THCVA: cultures fed 1 mM divaric acid; for % CBCVA / % CBDVA / % THCVA: share of terminal cannabinoid products
Description: as §1, §2, §3

Molecule	Mean CBCA [1] [µg/L]	Mean CBDA [1] [µg/L]	Mean THCA [1] [µg/L]	Average CBGA residual substrate [1] [µg/L]	% CBCA [1] [%]	% CBDA [1] [%]	% THCA [1] [%]	Average CBGVA residual substrate [2] [µg/L]	Mean CBCVA [2] [µg/L]	Mean CBDVA [2] [µg/L]	Mean THCVA [2] [µg/L]	% CBCVA [2] [%]	% CBDVA [2] [%]	% THCVA [2] [%]
t808247 (protein) MGNTTSIAAGRDCLVSAVGPAHVTFQDALLYQTTAVDPYNLNIPVTPAAVTYPQSAEEIAAVVKCASDYDYKVQARSGGHSFGNYGLGGQNGAIVVDMKHFSQFSMDESTFVATIGPGTTLGDLDTELYNAGGRAMAHGICPTIRTGGHLTVGGLGPTARQWGLALDHIEEVEVVLANSSIVRASNTQNQDILFAVKGAAASFGIVTEFKVRTQEAPGLAVQYSFTFNLGSPAQKAKLVKDWQAFIAQENLSWKFYSNLVIFDGQIILEGIFFGSKEEYDELDLEKRFPTSEPGTVLVLTDWLGMIGHALEDTILKLVGDTPTWFYAKSLGFTPDTLIPDSAIDDFFDYIHKTNAGTLAWFVTLSLEGGAINSVSEDATAYGHRDVLFWFQVFVVNPLGPISQTTYDFTNGLYDVLAQAVPESAGHAYLGCPDPKMPDAQRAYWRSNLPRLEDLKGDLDPKDTFHNPQGVQVGP	27052.63	420.85	1703.93	0.00	92.72	1.44	5.84	0.00	2651.55	15.16	1783.19	59.59	0.34	40.07
t808253 (protein) MGNTTSIAAGRDCLVSAVGPAHVTFQDALLYQTTAVDPYNLNIPVTPAAVTYPQSAEEIAAVVKCASDYDYKVQARSGGHSFGNYGLGGQNGAIVVEMKHFSQFSMDESTFVATIGPGTTLGDLDTELYNTGGRAMAHGICPTIRTGGHLTVGGLGPTARQWGLALDHIEEVEVVLANSSIVRASNTQNQDILFAVKGAAASFGIVTEFKVRTQEAPGLAVQYSFTFNLGSAAQKAKLVKDWQAFIAQENLSWKFYSNLVIFDGQIILEGIFFGSKEEYDELDLEKRFPTSEPGTVLVLTDWLGMIGHGLEDTILKLVGDTPTWFYAKSLGFTPDTLIPDSAIDDFFDYIHKTNAGTLAWFVTLSLEGGAINSVSEDATAYGHRDVLFWFQVFVVNPLGPISQTTYDFTNGLYDVLAQAVPESAGHAYLGCPDPKMPDAQRAYWRSNLPRLEDLKGDLDPKDTFHNPQGVQVGP	15518.14	63.99	916.93	0.00	94.05	0.39	5.56	0.00	1476.99	0.00	715.85	67.35	0.00	32.65
